Experimental data taken from US20260097113A1 (Pfizer, published 2026).
Substitutions are numbered along the chain they refer to.

B1: AM14 (trimeric prefusion specific antibody of the AM14 ELISA) (antibody, V domains shown)
VH: EVQLVESGGGVVQPGRSLRLSCAASGFSFSHYAMHWVRQAPGKGLEWVAVISYDGENTYYADSVKGRFSISRDNSKNTVSLQMNSLRPEDTALYYCARDRIVDDYYYYGMDVWGQGATVTVSS
VL: DIQMTQSPSSLSASVGDRVTITCQASQDIKKYLNWYHQKPGKVPELLMHDASNLETGVPSRFSGRGSGTDFTLTISSLQPEDIGTYYCQQYDNLPPLTFGGGTKVEIKR
notes: Antibody as used in the AM14 ELISA, detected with an HRP-labeled secondary antibody

Assays:
[1] = molecular target: RSV A + RSV B bivalent composition (RSV subtype A; RSV subtype B); experiment: AM14 Fab titration by SEC; composition of Table 14; Drying Temp + Ramp Aggressive cycle
[2] = molecular target: RSV A + RSV B bivalent composition (RSV subtype A; RSV subtype B); experiment: AM14 Fab titration by SEC; composition of Table 17; Pre-lyo Prep 1, T0 (second value)
[3] = molecular target: RSV A + RSV B bivalent composition (RSV subtype A; RSV subtype B); experiment: AM14 Fab titration by SEC; Target cycle; 1 M 25°C (second value)
[4] = molecular target: RSV A + RSV B bivalent composition (RSV subtype A; RSV subtype B); experiment: AM14 Fab titration by SEC; Low-Fast cycle; 8 M 25°C
[5] = molecular target: RSV A + RSV B bivalent composition (RSV subtype A; RSV subtype B); experiment: AM14 Fab titration by SEC; composition of Table 14; pre-lyo composition
[6] = molecular target: T1, RSV F protein of subtype A comprising a polypeptide of SEQ ID NO: 1 and a polypeptide of SEQ ID NO: 2 (RSV subtype A, UniProt P11209 137-513; P03420 26-109); experiment: AM14 ELISA; F15 (pH 6, 0 mM NaCl, 9% sucrose); T0
T1 construct: Stabilized prefusion F trimer made of three F2-F1 heterodimers; Produced recombinantly in CHO cells; also called RSV A; RSVA
T1 chain 1: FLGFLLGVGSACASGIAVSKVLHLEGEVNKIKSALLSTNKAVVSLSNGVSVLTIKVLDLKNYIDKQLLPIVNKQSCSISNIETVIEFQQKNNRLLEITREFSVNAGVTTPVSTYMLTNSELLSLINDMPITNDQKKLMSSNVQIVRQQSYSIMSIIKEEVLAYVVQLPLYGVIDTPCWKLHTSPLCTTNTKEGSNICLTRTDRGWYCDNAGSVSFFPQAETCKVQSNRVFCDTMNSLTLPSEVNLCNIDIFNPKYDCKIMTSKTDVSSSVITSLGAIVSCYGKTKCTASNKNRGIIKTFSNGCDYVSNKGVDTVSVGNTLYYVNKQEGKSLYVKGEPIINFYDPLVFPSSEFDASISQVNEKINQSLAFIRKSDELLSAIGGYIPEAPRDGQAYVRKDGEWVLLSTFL
T1 chain 2: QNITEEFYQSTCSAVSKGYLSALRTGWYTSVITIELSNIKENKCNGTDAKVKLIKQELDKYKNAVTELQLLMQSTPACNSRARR

[7] = molecular target: T1, RSV F protein of subtype A comprising a …; experiment: AM14 ELISA; F8 (pH 7, 50 mM NaCl, 0% sucrose); 1 wk 5°C
[8] = molecular target: T1, RSV F protein of subtype A comprising a …; experiment: AM14 ELISA; F6 (pH 7, 0 mM NaCl, 4.5% sucrose); 2 wk 25°C
[9] = molecular target: T1, RSV F protein of subtype A comprising a …; experiment: AM14 ELISA; F11 (pH 7, 50 mM NaCl, 9.0% sucrose); 1 wk 25°C
[10] = molecular target: T1, RSV F protein of subtype A comprising a …; experiment: AM14 ELISA; F2 (pH 8, 0 mM NaCl, 0% sucrose); T0
[11] = molecular target: T1, RSV F protein of subtype A comprising a …; experiment: AM14 ELISA; F18 (pH 7, 50 mM NaCl, 3% sucrose + 3% mannitol); 2 wk 25°C
[12] = molecular target: T1, RSV F protein of subtype A comprising a …; experiment: AM14 ELISA; F9 (pH 8, 50 mM NaCl, 4.5% sucrose); 1 wk 25°C
[13] = molecular target: T1, RSV F protein of subtype A comprising a …; experiment: AM14 ELISA; F12 (pH 8, 100 mM NaCl, 9.0% sucrose); T0
[14] = molecular target: T2, RSV F protein comprising a polypeptide of SEQ ID NO: 3 and a polypeptide of SEQ ID NO: 4 (RSV subtype B, UniProt O36634 137-513; O36634 26-109); experiment: AM14 prefusion assay relative to standard; RSV B 480 µg/mL, 2% sucrose + 4% mannitol; pre-lyo
T2 construct: also called RSV B; RSVB
T2 chain 1: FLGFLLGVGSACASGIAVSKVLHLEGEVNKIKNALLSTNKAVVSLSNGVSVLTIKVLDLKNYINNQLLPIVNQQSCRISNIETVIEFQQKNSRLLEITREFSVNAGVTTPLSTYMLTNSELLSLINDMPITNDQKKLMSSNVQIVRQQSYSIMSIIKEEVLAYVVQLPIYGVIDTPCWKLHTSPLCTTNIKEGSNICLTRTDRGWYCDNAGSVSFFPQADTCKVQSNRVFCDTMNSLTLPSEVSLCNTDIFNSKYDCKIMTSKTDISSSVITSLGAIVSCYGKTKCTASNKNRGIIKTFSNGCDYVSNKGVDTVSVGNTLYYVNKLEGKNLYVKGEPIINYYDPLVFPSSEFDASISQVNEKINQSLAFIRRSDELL
T2 chain 2: T1 chain 2 with K17R, L20F, N42T, A49T, S74N, S80N

Molecule	Prefusion Content (%) [1] [%]	Prefusion Content (%) [2] [%]	Prefusion Content (%) [3] [%]	Prefusion Content (%) [4] [%]	Prefusion Content (%) [5] [%]	AM14 prefusion content (%), relative to standard [6] [%]	AM14 prefusion content (%), relative to standard [7] [%]	AM14 prefusion content (%), relative to standard [8] [%]	AM14 prefusion content (%), relative to standard [9] [%]	AM14 prefusion content (%), relative to standard [10] [%]	AM14 prefusion content (%), relative to standard [11] [%]	AM14 prefusion content (%), relative to standard [12] [%]	AM14 prefusion content (%), relative to standard [13] [%]	AM14 prefusion content (%), relative to standard [14] [%]
AM14 Fab	67	84	65	76	77									
B1						106	99	83	91	86	78	84	100	90
